Measurements from paper PMC12375108.

Target: GST-tagged T. marianensis hinT H100N (Thermaerobacter marianensis)
Assay: BLI; GST-hinT (90 nM) immobilised on anti-GST biosensors; sucA-AMP 500 to 7.81 nM, unmodified sucA at 500 nM; 10 mM Tris pH 8, 150 mM NaCl, 0.1% Triton X-100; KD from steady-state responses, one site

B1: AMPylated sucA (enzyme)
chain: MQNSALKAWLDSSYLSGANQSWIEQLYEDFLTDPDSVDANWRSTFQQLPGTGVKPDQFHSQTREYFRRLAKDASRYSSTISDPDTNVKQVKVLQLINAYRFRGHQHANLDPLGLWQQDKVADLDPSFHDLTEADFQETFNVGSFASGKETMKLGELLEALKQTYCGPIGAEYMHITSTEEKRWIQQRIESGRATFNSEEKKRFLSELTAAEGLERYLGAKFPGAKRFSLEGGDALIPMLKEMIRHAGNSGTREVVLGMAHRGRLNVLVNVLGKKPQDLFDEFAGKHKEHLGTGDVKYHMGFSSDFQTDGGLVHLALAFNPSHLEIVSPVVIGSVRARLDRLDEPSSNKVLPITIHGDAAVTGQGVVQETLNMSKARGYEVGGTVRIVINNQVGFTTSNPLDARSTPYCTDIGKMVQAPIFHVNADDPEAVAFVTRLALDFRNTFKRDVFIDLVCYRRHGHNEADEPSATQPLMYQKIKKHPTPRKIYADKLEQEKVATLEDATEMVNLYRDALDAGDCVVAEWRPMNMHSFTWSPYLNHEWDEEYPNKVEMKRLQELAKRISTVPEAVEMQSRVAKIYGDRQAMAAGEKLFDWGGAENLAYATLVDEGIPVRLSGEDSGRGTFFHRHAVIHNQSNGSTYTPLQHIHNGQGAFRVWDSVLSEEAVLAFEYGYATAEPRTLTIWEAQFGDFANGAQVVIDQFISSGEQKWGRMCGLVMLLPHGYEGQGPEHSSARLERYLQLCAEQNMQVCVPSTPAQVYHMLRRQALRGMRRPLVVMSPKSLLRHPLAVSSLEELANGTFLPAIGEIDELDPKGVKRVVMCSGKVYYDLLEQRRKNNQHDVAIVRIEQLYPFPHKAMQEVLQQFAHVKDFVWCQEEPLNQGAWYCSQHHFREVIPFGASLRYAGRPASASPAVGYMSVHQKQQQDLVNDALNVE
modifications: multiple AMPylation sites, residues not given
Kd: 9 nM
